Source: PMC10786891, “Massively parallel profiling of RNA-targeting CRISPR-Cas13d”

T1: EsCas13d, nuclease-dead (Eubacterium siraeum, UniProt B0MS50, R295A;H300A;R849A;H854A)
T1 sequence: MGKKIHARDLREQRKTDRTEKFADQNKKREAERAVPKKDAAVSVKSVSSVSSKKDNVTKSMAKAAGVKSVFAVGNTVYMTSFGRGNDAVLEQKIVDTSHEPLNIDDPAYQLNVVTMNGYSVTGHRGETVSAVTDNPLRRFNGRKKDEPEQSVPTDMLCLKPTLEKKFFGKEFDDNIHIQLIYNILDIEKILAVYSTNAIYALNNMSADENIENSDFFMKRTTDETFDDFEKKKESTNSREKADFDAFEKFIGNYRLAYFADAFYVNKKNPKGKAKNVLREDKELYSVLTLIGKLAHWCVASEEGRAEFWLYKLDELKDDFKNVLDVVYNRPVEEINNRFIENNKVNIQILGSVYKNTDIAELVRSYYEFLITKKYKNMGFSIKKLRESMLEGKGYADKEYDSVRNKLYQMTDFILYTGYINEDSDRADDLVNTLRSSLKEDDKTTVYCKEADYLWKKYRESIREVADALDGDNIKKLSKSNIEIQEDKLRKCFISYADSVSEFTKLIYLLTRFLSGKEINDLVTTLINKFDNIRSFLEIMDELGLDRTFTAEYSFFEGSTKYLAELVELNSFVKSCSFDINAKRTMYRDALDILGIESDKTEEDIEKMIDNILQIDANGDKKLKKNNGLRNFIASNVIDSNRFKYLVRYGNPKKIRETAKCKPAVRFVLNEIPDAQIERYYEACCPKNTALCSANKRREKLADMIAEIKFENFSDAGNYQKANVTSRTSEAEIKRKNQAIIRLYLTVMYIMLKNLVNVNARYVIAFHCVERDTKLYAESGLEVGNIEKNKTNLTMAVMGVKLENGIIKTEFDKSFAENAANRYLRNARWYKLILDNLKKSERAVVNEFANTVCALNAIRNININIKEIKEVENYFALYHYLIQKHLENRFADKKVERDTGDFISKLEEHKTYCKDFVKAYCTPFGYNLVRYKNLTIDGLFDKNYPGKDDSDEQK


molecular target: T1, EsCas13d, nuclease-dead; experiment: crRNA (strand 1, pre-loaded); Mg2+; 40 mM Tris-HCl pH 7.5, 150 mM NaCl, 6 mM MgCl2, 1 mM DTT, 0.1% Tween-20, 0.2 mg/ml BSA; 25 C; 10 min per concentration, then washed; conditions: tags: His6-TwinStrep-SUMO cleaved; N-terminal SNAP kept (SNAP-Surface 488); label: 3' end held by stalled T7 RNA polymerase

| Binder | Kd |
| --- | --- |
| target 1 insA 3' of 21,insC 3' of 8 (mixed) RNA 1: CACCCGUGCAAAAAUGCAGGGGUCUAAAACUGAGCGGAUAACCUCUCUAUGG RNA 2: GGGAAUGGAUCCACAUCUACGAAUUCGUACCAAUAGAGAGGUUAUCCCGCUCACCGAGAUCGGAAGAGCACACGU | 21.5 ± 1.1 nM |
| target 1 complement block 5-10 (mixed) RNA 1: CACCCGUGCAAAAAUGCAGGGGUCUAAAACUGAGCGGAUAACCUCUCUAUGG RNA 2: GGGAAUGGAUCCACAUCUACGAAUUCGUACCAUAGAGAGGUAUAGGCCUCACCGAGAUCGGAAGAGCACACGU | 14.5 ± 0.7 nM |
| target 1 insA 3' of 13,insG 3' of 7 (mixed) RNA 1: CACCCGUGCAAAAAUGCAGGGGUCUAAAACUGAGCGGAUAACCUCUCUAUGG RNA 2: GGGAAUGGAUCCACAUCUACGAAUUCGUACCAUAGAGAGAGUUAUCGCGCUCACCGAGAUCGGAAGAGCACACGU | 4.48 ± 0.22 nM |
| target 2 MT 5'PFS GAA 3'PFS UCC (mixed) RNA 1: CACCCGUGCAAAAUUGCAGGGGUCUAAAACCUUCUCCAAAUUGUUUCAUCCU RNA 2: GGGAAUGGAUCCACAUCUACGAAUUCGAAAGGAUGAAACAAUUUGGAGAAGUCCAGAUCGGAAGAGCACACGU | 32 ± 6 nM |
| target 2 MT 5'PFS UUG 3'PFS UGU (mixed) RNA 1: CACCCGUGCAAAAUUGCAGGGGUCUAAAACCUUCUCCAAAUUGUUUCAUCCU RNA 2: GGGAAUGGAUCCACAUCUACGAAUUCUUGAGGAUGAAACAAUUUGGAGAAGUGUAGAUCGGAAGAGCACACGU | 16.8 ± 1.9 nM |
| target 2 MT 5'PFS GAA 3'PFS UCG (mixed) RNA 1: CACCCGUGCAAAAUUGCAGGGGUCUAAAACCUUCUCCAAAUUGUUUCAUCCU RNA 2: GGGAAUGGAUCCACAUCUACGAAUUCGAAAGGAUGAAACAAUUUGGAGAAGUCGAGAUCGGAAGAGCACACGU | 13.1 ± 1.6 nM |
| target 2 MT 5'PFS UUG 3'PFS UGC (mixed) RNA 1: CACCCGUGCAAAAUUGCAGGGGUCUAAAACCUUCUCCAAAUUGUUUCAUCCU RNA 2: GGGAAUGGAUCCACAUCUACGAAUUCUUGAGGAUGAAACAAUUUGGAGAAGUGCAGAUCGGAAGAGCACACGU | 14.1 ± 2.2 nM |
| target 2 MT 5'PFS GUG 3'PFS AUC (mixed) RNA 1: CACCCGUGCAAAAUUGCAGGGGUCUAAAACCUUCUCCAAAUUGUUUCAUCCU RNA 2: GGGAAUGGAUCCACAUCUACGAAUUCGUGAGGAUGAAACAAUUUGGAGAAGAUCAGAUCGGAAGAGCACACGU | 10.8 ± 0.8 nM |
| target 2 MT 5'PFS UGC 3'PFS AUC (mixed) RNA 1: CACCCGUGCAAAAUUGCAGGGGUCUAAAACCUUCUCCAAAUUGUUUCAUCCU RNA 2: GGGAAUGGAUCCACAUCUACGAAUUCUGCAGGAUGAAACAAUUUGGAGAAGAUCAGAUCGGAAGAGCACACGU | 33 ± 7 nM |
| target 2 MT 5'PFS CCU 3'PFS CCC (mixed) RNA 1: CACCCGUGCAAAAUUGCAGGGGUCUAAAACCUUCUCCAAAUUGUUUCAUCCU RNA 2: GGGAAUGGAUCCACAUCUACGAAUUCCCUAGGAUGAAACAAUUUGGAGAAGCCCAGAUCGGAAGAGCACACGU | 5.3 ± 2 nM |
| target 2 MT 5'PFS GGU 3'PFS CUU (mixed) RNA 1: CACCCGUGCAAAAUUGCAGGGGUCUAAAACCUUCUCCAAAUUGUUUCAUCCU RNA 2: GGGAAUGGAUCCACAUCUACGAAUUCGGUAGGAUGAAACAAUUUGGAGAAGCUUAGAUCGGAAGAGCACACGU | 16.7 ± 1.3 nM |
| target 2 MT 5'PFS UGC 3'PFS AUG (mixed) RNA 1: CACCCGUGCAAAAUUGCAGGGGUCUAAAACCUUCUCCAAAUUGUUUCAUCCU RNA 2: GGGAAUGGAUCCACAUCUACGAAUUCUGCAGGAUGAAACAAUUUGGAGAAGAUGAGAUCGGAAGAGCACACGU | 28 ± 6 nM |
| target 2 MT 5'PFS GAU 3'PFS UAA (mixed) RNA 1: CACCCGUGCAAAAUUGCAGGGGUCUAAAACCUUCUCCAAAUUGUUUCAUCCU RNA 2: GGGAAUGGAUCCACAUCUACGAAUUCGAUAGGAUGAAACAAUUUGGAGAAGUAAAGAUCGGAAGAGCACACGU | 12 ± 4 nM |
| target 2 MT 5'PFS GAG 3'PFS UUC (mixed) RNA 1: CACCCGUGCAAAAUUGCAGGGGUCUAAAACCUUCUCCAAAUUGUUUCAUCCU RNA 2: GGGAAUGGAUCCACAUCUACGAAUUCGAGAGGAUGAAACAAUUUGGAGAAGUUCAGAUCGGAAGAGCACACGU | 15.7 ± 2.5 nM |
| target 2 MT 5'PFS AUG 3'PFS AUG (mixed) RNA 1: CACCCGUGCAAAAUUGCAGGGGUCUAAAACCUUCUCCAAAUUGUUUCAUCCU RNA 2: GGGAAUGGAUCCACAUCUACGAAUUCAUGAGGAUGAAACAAUUUGGAGAAGAUGAGAUCGGAAGAGCACACGU | 9.9 ± 1.4 nM |
| target 2 MT 5'PFS GUG 3'PFS AUU (mixed) RNA 1: CACCCGUGCAAAAUUGCAGGGGUCUAAAACCUUCUCCAAAUUGUUUCAUCCU RNA 2: GGGAAUGGAUCCACAUCUACGAAUUCGUGAGGAUGAAACAAUUUGGAGAAGAUUAGAUCGGAAGAGCACACGU | 11.3 ± 0.9 nM |
| target 2 MT 5'PFS GUG 3'PFS UUC (mixed) RNA 1: CACCCGUGCAAAAUUGCAGGGGUCUAAAACCUUCUCCAAAUUGUUUCAUCCU RNA 2: GGGAAUGGAUCCACAUCUACGAAUUCGUGAGGAUGAAACAAUUUGGAGAAGUUCAGAUCGGAAGAGCACACGU | 27 ± 4 nM |
| target 2 MT 5'PFS CAG 3'PFS UAC (mixed) RNA 1: CACCCGUGCAAAAUUGCAGGGGUCUAAAACCUUCUCCAAAUUGUUUCAUCCU RNA 2: GGGAAUGGAUCCACAUCUACGAAUUCCAGAGGAUGAAACAAUUUGGAGAAGUACAGAUCGGAAGAGCACACGU | 5.3 ± 1 nM |
| target 2 MT 5'PFS GAU 3'PFS UAC (mixed) RNA 1: CACCCGUGCAAAAUUGCAGGGGUCUAAAACCUUCUCCAAAUUGUUUCAUCCU RNA 2: GGGAAUGGAUCCACAUCUACGAAUUCGAUAGGAUGAAACAAUUUGGAGAAGUACAGAUCGGAAGAGCACACGU | 16 ± 3.4 nM |
| target 2 MT 5'PFS UGC 3'PFS AUA (mixed) RNA 1: CACCCGUGCAAAAUUGCAGGGGUCUAAAACCUUCUCCAAAUUGUUUCAUCCU RNA 2: GGGAAUGGAUCCACAUCUACGAAUUCUGCAGGAUGAAACAAUUUGGAGAAGAUAAGAUCGGAAGAGCACACGU | 28 ± 9 nM |
| target 2 MT 5'PFS GAU 3'PFS UAG (mixed) RNA 1: CACCCGUGCAAAAUUGCAGGGGUCUAAAACCUUCUCCAAAUUGUUUCAUCCU RNA 2: GGGAAUGGAUCCACAUCUACGAAUUCGAUAGGAUGAAACAAUUUGGAGAAGUAGAGAUCGGAAGAGCACACGU | 13.4 ± 2.7 nM |
| target 2 MT 5'PFS GCU 3'PFS UGC (mixed) RNA 1: CACCCGUGCAAAAUUGCAGGGGUCUAAAACCUUCUCCAAAUUGUUUCAUCCU RNA 2: GGGAAUGGAUCCACAUCUACGAAUUCGCUAGGAUGAAACAAUUUGGAGAAGUGCAGAUCGGAAGAGCACACGU | 12.9 ± 2.1 nM |
| target 2 MT 5'PFS GUG 3'PFS UUA (mixed) RNA 1: CACCCGUGCAAAAUUGCAGGGGUCUAAAACCUUCUCCAAAUUGUUUCAUCCU RNA 2: GGGAAUGGAUCCACAUCUACGAAUUCGUGAGGAUGAAACAAUUUGGAGAAGUUAAGAUCGGAAGAGCACACGU | 22.5 ± 3.2 nM |
| target 2 MT 5'PFS GUG 3'PFS AUA (mixed) RNA 1: CACCCGUGCAAAAUUGCAGGGGUCUAAAACCUUCUCCAAAUUGUUUCAUCCU RNA 2: GGGAAUGGAUCCACAUCUACGAAUUCGUGAGGAUGAAACAAUUUGGAGAAGAUAAGAUCGGAAGAGCACACGU | 11.3 ± 1.5 nM |
| target 2 MT 5'PFS GCU 3'PFS UGU (mixed) RNA 1: CACCCGUGCAAAAUUGCAGGGGUCUAAAACCUUCUCCAAAUUGUUUCAUCCU RNA 2: GGGAAUGGAUCCACAUCUACGAAUUCGCUAGGAUGAAACAAUUUGGAGAAGUGUAGAUCGGAAGAGCACACGU | 17.7 ± 2.7 nM |
| target 2 MT 5'PFS GUA 3'PFS CGG (mixed) RNA 1: CACCCGUGCAAAAUUGCAGGGGUCUAAAACCUUCUCCAAAUUGUUUCAUCCU RNA 2: GGGAAUGGAUCCACAUCUACGAAUUCGUAAGGAUGAAACAAUUUGGAGAAGCGGAGAUCGGAAGAGCACACGU | 6.9 ± 0.4 nM |
| target 2 MT 5'PFS GUG 3'PFS AUG (mixed) RNA 1: CACCCGUGCAAAAUUGCAGGGGUCUAAAACCUUCUCCAAAUUGUUUCAUCCU RNA 2: GGGAAUGGAUCCACAUCUACGAAUUCGUGAGGAUGAAACAAUUUGGAGAAGAUGAGAUCGGAAGAGCACACGU | 13.8 ± 1.3 nM |
| target 2 MT 5'PFS GAA 3'PFS UCU (mixed) RNA 1: CACCCGUGCAAAAUUGCAGGGGUCUAAAACCUUCUCCAAAUUGUUUCAUCCU RNA 2: GGGAAUGGAUCCACAUCUACGAAUUCGAAAGGAUGAAACAAUUUGGAGAAGUCUAGAUCGGAAGAGCACACGU | 30 ± 9 nM |
